{"source": "patent US20240239894A1", "about": "“THERAPEUTIC BINDING MOLECULES” (MedImmune Limited, priority 2020, published 2024)", "key": {"[1]": {"biological_target": "human B7-H4 on cells (human) (UniProt Q7Z7D3)", "sequence (Q7Z7D3 25-282 limits assumed)": "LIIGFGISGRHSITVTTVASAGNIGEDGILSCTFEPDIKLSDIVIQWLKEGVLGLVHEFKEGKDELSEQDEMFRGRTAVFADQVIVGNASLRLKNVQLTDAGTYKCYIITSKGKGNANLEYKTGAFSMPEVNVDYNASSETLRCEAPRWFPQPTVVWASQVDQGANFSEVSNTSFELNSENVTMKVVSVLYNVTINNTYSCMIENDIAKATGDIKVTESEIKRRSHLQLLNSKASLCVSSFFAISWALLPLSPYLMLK", "assay": "flow cytometry, AF647-labelled antibody at 78 ng/ml, SKBR-3 cells"}, "[2]": {"biological_target": "human B7-H4 on cells (human) (UniProt Q7Z7D3)", "assay": "flow cytometry, AF647-labelled antibody at 312 ng/ml, SKBR-3 cells"}}}
{"substance": "R347-maia human IgG1 (isotype control) (antibody)", "values": [{"measurement": "Geometric Mean : Comp-APC-A", "setting": "[1]", "value": 101}, {"measurement": "Geometric Mean : Comp-APC-A", "setting": "[2]", "value": 121}]}
